B1: p80: S. purpuratus katanin p80 subunit, 690 a.a. with six WD40 repeats (SEQ ID NO:2), baculovirus-expressed, His-tagged (protein, listed as Strongylocentrotus purpuratus)
chain: MATKRAWKLQELVAHSSNVNCLALGPMSGRVMVTGGEDKKVNLWAVGKQNCIISLSGHTSPVDSVKFNSSEELVVAGSQSGTMKIYDLEPAKIVRTLTGHRNSIRCMDFHPFGEFVASGSTDTNVKLWDVRRKGCIYTYKGHSDQVNMIKFSPDGKWLVTASEDTTIKLWDLTMGKLFQEFKNHTGGVTGIEFHPNEFLLASGSSDRTVQFWDLETFQLVSSTSPGASAVRSISFHPDGSYLFCSSQDMLHAFGWEPIRCFDTFSVGWGKVADTVIASTQLIGASFNATNVSVYVADLSRMSTTGIAQEPQSQPSKTPSGGAEEVPSKPLTASGRKNFVRERPHTTSSKQRQPDVKSEPERQSPTQDEGVKDDDATDIKDPDSYAKIFSPKTRVDHSPERNAQPFPAPLDVPGAQEPEPFKHPPKPAAAAAVAPVSRAPAPSASDWQPAQANPAPNRVPAATKPVPAQEVAPSRKPDPISTIIPSDRNKPANLDMDAFLPPAHAQQAPRVNAPASRKQSDSERIEGLRKGHDSMCQVLSSRHRNLDVVRAIWTAGDAKTSVESVVNMKDQAILVDILNIMLLKKSLWNLDMCVVVLPRLKELLSSKYENYVHTSCACLKLILKNFTSLFNQNIKCPPSGIDITREERYNKCSKCYSYLIATRGYVEEKQHVSGKLGSSFRELHLLLDQLE
modifications: His tag; katanin p80 subunit
B2: p80 WD40-GFP: fusion of the six WD40 repeats of human p80 katanin (a.a. 1-263) to the N-terminus of green fluorescent protein (protein)
chain: MATPVVTKTAWKLQEIVAHASNVSSLVLGKASGRLLATGGDDCRVNLWSINKPNCIMSLTGHTSPVESVRLNTPEELIVAGSQSGSIRVWDLEAAKILRTLMGHKANICSLDFHPYGEFVASGSQDTNIKLWDIRRKGCVFRYRGHSQAVRCLRFSPDGKWLASAADDHTVKLWDLTAGKMMSEFPGHTGPVNVVEFHPNEYLLASGSSDRTIRFWDLEKFQVVSCIEGEPGPVRSVLFNPDGCCLYSGCQDSLRVYGWEPER
modifications: left off: large carriers
notes: fusion of the six WD40 repeats of human p80 katanin (a.a. 1-263) to the N-terminus of green fluorescent protein

What was measured:
[1] = ATPase assay (modified malachite green method); format: biochemical; conditions: baculovirus-expressed subunit alone
Procedure: ATPase activity was measured by a modified malachite green method (Kodama et al. (1986) J. Biochem. 99: 1465-1472). ATPase reactions of 50-100 μl were carried out in a buffer previously used for measuring the ATPase activity of native katanin [20 mM K-HEPES pH 8.0, 25 mM potassium glutamate 2 mM MgCl2, 10% glycerol (v/v), 0.02% Triton X-100 (w/v), 1 mg/ml BSA] (McNally and Vale (1993) Cell, 75: 419-429), except that soybean trypsin inhibitor (SBTI) was replaced by BSA as a carrier protein because SBTI increased background phosphate contamination. An ATP regenerating system, consisting of 0.5-1.0 mM phosphoenol pyruvate and 2 units of pyruvate kinase, was included to minimize the inhibition by ADP observed previously for native katanin (McNally and Vale (1993) Cell, 75: 419-429). Microtubules were prepared from bovine brain tubulin (Hyman et al. (1990) Meth. Enzymol. 196: 303-319; and Williams and Lee (1982) Meth Enzymol. 85B: 376-385). After assembly, microtubules were sedimented (230,000×g; 10 min), resuspended in ATPase buffer lacking BSA, and the polymers were resuspended by repeated passage through a 27 gauge needle. Microtubule concentration was determined by measuring the absorbance at 275 nm in 6 M guanidine HCl by using a molecular mass of 110 kDa and an extinction coefficient of 1.03 ml mg^−1 cm^−1 (Hackney (1988) Proc. Natl. Acad Sci. USA, 85: 6314-6318). ATPase reactions were carried out at room temperature, and were initiated by addition of katanin.

[2] = system: Taxol-stabilized, rhodamine-labeled microtubules; assay: Microscope-based microtubule severing assay; format: biochemical; conditions: p60, p60/p80 0.1 μM; p80 0.5 μM (5-fold higher)
Procedure: FIGS. 5A, 5B, and 5C illustrate the activities of recombinant katanin subunits. […] Taxol-stabilized, rhodamine-labeled microtubules were adsorbed onto the surface of a microscope perfusion chamber, and then recombinant katanin subunits were introduced. The time elapsed after perfusing p60/p80 (0.1 μM), p60 (0.1 μM), or p80 (0.5 μM) is shown. The recombinant co-expressed p60/p80 and p60, but not p80, can sever and disassemble microtubules. Scale bar, 10 μm.
Microscope-based severing assays were performed using previously published procedures (McNally and Vale (1993) Cell, 75: 419-429), except that microtubules were immobilized by first perfusing flow cells with a bacterially expressed kinesin mutant that binds strongly to microtubules but is unable to hydrolyze ATP (K560, G234A mutant; R. Vale and E. Taylor, unpublished results). Assays were performed in 20 mM Hepes (pH 7.5), 2 mM MgCl2, 1 mM ATP with an oxygen scavenger system consisting of glucose oxidase (220 μg/ml), catalase (36 μg/ml), glucose (22.5 mM), and 2-mercaptoethanol (71.5 mM). Images were captured using a cooled, slow-scan CCD (Photometerics) and processed using Adobe Photoshop.

[3] = system: DAPI-labeled microtubules; assay: DAPI fluorescence microtubule disassembly (severing) assay; format: biochemical, bovine; conditions: 2 μM microtubules
Excerpt: To better compare the microtubule severing activities of p60 and p60/p80, we developed a quantitative microtubule disassembly assay based upon a previous finding that DAPI fluorescence intensity is higher when this dye is bound to polymerized versus free tubulin (Heusele et al. (1987) Eur. J Biochem. 165: 613-620). […] This slower rate of microtubule disassembly is consistent with the previously described 2-fold decrease in ATPase activity of p60 compared with p60/p80.
ATPase activity was measured by a modified malachite green method (Kodama et al. (1986) J. Biochem. 99: 1465-1472). […] Microtubule concentration was determined by measuring the absorbance at 275 nm in 6 M guanidine HCl by using a molecular mass of 110 kDa and an extinction coefficient of 1.03 ml mg^−1 cm^−1 (Hackney (1988) Proc. Natl. Acad Sci. USA, 85: 6314-6318). […]
DAPI severing assays were performed using conditions where the change in fluorescence intensity was linear with the amount of tubulin polymer added (Heusele et al. (1987) Eur. J Biochem. 165: 613-620). […] The reaction volume was 80 μL, and fluorescence intensity was measured by exciting at 370 nm. and measuring the emission at 450 mn using a model 8100 fluorimeter (SLM Instruments) in photon counting mode.

[4] = system: MSU1.1 human fibroblasts; assay: Centrosome targeting of GFP fusion after transient transfection; format: cell-based; conditions: 2-4 hr after transfection
Procedure: To allow transient expression of a human p80 WD40-GFP fusion protein in HeLa cells, a DNA fragment containing amino acids 1-263 of human p80 katanin was generated by PCR amplification, placing a BamHI site and a Kozak consensus at the predicted translation start and an EcoRI site after the codon for a.a. 263. This BamHI-EcoRI fragment was ligated into the GFP fusion vector pEGFP-N1 (Clontech).
Both MSU1.1 and HeLa cells were grown on 18 mm glass coverslips in Optimem medium (Life Technologies) supplemented with 10% fetal bovine serum, penicillin and streptomycin. Plasmids were transfected using Superfect Reagent (Qiagen) for 2 hr after which coverslips were washed with PBS and placed in fresh culture medium at 37° C. with 5% CO2 for 1-24 hr.
For imaging of GFP-fluorescence and immunofluorescence with the human p80 katanin antibody or with the γ-tubulin antibody, monoclonal GTU88 (Sigma Chemical), cells on coverslips were fixed either in −20° C. methanol or in 0.5×PBS, 3.7% formaldehyde, 75% methanol at 22° C. for 10 min followed by rehydration in TBST. Antibody labelling was carried out in TBST containing 4% BSA. Images were captured with a Nikon Microphot SA microscope, 100×Plan Fluor 1.3 objective, Photometrics Quantix camera and IP Lab Spectrum software (Scanalytics).

Row | Molecule | ATPase activity (in words) [1] | microtubule severing (in words) [2] | change in DAPI fluorescence (in words) [3] | localization of GFP fluorescence [4]
1 | B1 | no detectable ATPase activity | unable to sever microtubules | did not cause a change in fluorescence that was different from that shown for microtubules alone | –
2 | B2 | – | – | – | co-localized with γ-tubulin staining

From patent publication US6429304B1, “Nucleic acids encoding a katanin p60 subunit” (The Regents of the University of California, priority 1998, dated 2002)
